According to publication PMC2647743 (Bioconjugate chemistry, 2008):

Legend:
[1] = Biodistribution; conditions: ICR SCID, mouse, in vivo, 185 kBq, total radioactivity, tumor uptake, PC-3 tumor bearing SCID mice, 15 min post-injection
[2] = test system: PC-3 tumor xenografts; experiment: Biodistribution; conditions: PC-3 tumor bearing SCID mice; for tumor retention: initial (15 min) uptake retained in the tumor tissue: 24 hr post-injection relative to the 15 min values

SMILES | tissue uptake at 0.25 h [1] [%ID/g] | tumor retention: initial (15 min) uptake retained in the tumor tissue [2] [%] | Heart ([2]; 1 hr p.i., i.v.) [%ID/g] | Liver ([2]; 4 hr p.i., i.v., n = 5) [%ID/g] | Lung ([2]; 24 hr p.i., i.v., n = 5) [%ID/g]
CSCC[C@H](NC(=O)[C@H](CC(C)C)NC(=O)[C@H](Cc1c[nH]cn1)NC(=O)CNC(=O)[C@@H](NC(=O)[C@H](C)NC(=O)[C@H](Cc1c[nH]c2ccccc12)NC(=O)[C@H](CCC(N)=O)NC(=O)CCC(=O)NCCOCCOCCNC(=O)CN1CCN(CC(=O)O)CCN(CC(=O)O)CCN(CC(=O)O)CC1)C(C)C)C(N)=O [In-DOTA-8-ADS-BBN(7-14)NH2] | 6.21 ± 1.57 | 19.8 |  |  | 
CSCC[C@H](NC(=O)[C@H](CC(C)C)NC(=O)[C@H](Cc1cnc[nH]1)NC(=O)CNC(=O)[C@@H](NC(=O)[C@H](C)NC(=O)[C@H](Cc1c[nH]c2ccccc12)NC(=O)[C@H](CCC(N)=O)NC(=O)CCCCCCCNC(=O)CN1CCN(CC(=O)O)CCN(CC(=O)O)CCN(CC(=O)O)CC1)C(C)C)C(N)=O [In-DOTA-8-AOC-BBN(7-14)NH2] | 6.66 ± 2 | 11.4 | 0.19 ± 0.20 | 0.15 ± 0.02 | 0.07 ± 0.03
CSCC[C@H](NC(=O)[C@H](CC(C)C)NC(=O)[C@H](Cc1cnc[nH]1)NC(=O)CNC(=O)[C@@H](NC(=O)[C@H](C)NC(=O)[C@H](Cc1c[nH]c2ccccc12)NC(=O)[C@H](CCC(N)=O)NC(=O)c1ccc(NC(=O)CN2CCN(CC(=O)O)CCN(CC(=O)O)CCN(CC(=O)O)CC2)cc1)C(C)C)C(N)=O [In-DOTA-AMBA-BBN(7-14)NH2] | 6.36 ± 1.6 | 26.6 |  |  | 
